Test results reported in article PMC4317691, “Stability of glucagon-like peptide 1 and glucagon in human plasma” (Endocrine Connections, 2015).

How the values were obtained:
[1] = human plasma, no ice
Protocol: GLP-1 and glucagon (0 and 40 pmol/l) were added to the portions, whereafter they were stored at either room temperature or on ice for 1 h and measured (as described below plasma samples after extraction and buffer samples directly).

[2] = Protocol: The aliquots (N=6–8) of spiked plasma were then: i) immediately extracted with ethanol (final concentration 70%, for this treatment we used N=21); ii) subjected to one freeze–thaw cycle (placed at −20 °C for ∼1 h followed by thawing in an ice bath) and extracted (using 70% ethanol, final concentration) immediately upon thawing; iii) subjected to two freeze–thaw cycles and extracted immediately upon second thawing; iv) subjected to three freeze–thaw cycles and extracted immediately upon third thawing; v) kept on ice for 1 h and extracted immediately after; vi) kept on ice for 3 h and extracted immediately after; vii) kept without ice for 1 h at RT and extracted immediately after; viii) kept without ice for 3 h and extracted immediately after.
Later, an additional plasma pool was prepared of fresh plasma from some (n=5) of the healthy subjects contributing to the first pool, spiked with glucagon (0 and 40 pmol/l, final concentration), and aliquoted. Thereafter, the valiquots were kept on ice for up to 24 h. These aliquots (N=6–8 for each time point) were extracted after 1, 3, 6, 12, and 24 h, respectively, measured (see below) and compared with a set of aliquots extracted immediately after spiking with peptide. […] After extraction, peptide concentrations were analyzed using the assays described below. […]

[3] = remark: listed apart in the source
Protocol: From each of the original spiked plasma portions, eight to ten aliquots were distributed into low-adsorption Nunc tubes (VWR-Bie&Berntsen A/S, Herlev, Denmark). One set of samples (N=8–10) was extracted and analyzed immediately to serve as controls. The remaining eight sets were divided into two and stored at −20 °C or −80 °C. Samples (N=8–10) from each set were analyzed after 1, 3, 6, and 12 months of storage. In addition, seven portions of the new plasma pool as well as assay buffer (to which was added 6% human serum albumin (HSA) to mimick plasma), spiked with 0 and 40 pmol/l of glucagon (N=5 for each set of spiked samples), were assayed (plasma after extraction) after freezing (at −20 °C) for 0 (i.e., they were measured immediately without freezing), 1, 3, 6, 12, 24, and 72 h of storage at −20 °C.
The recovery in percent was calculated as the measured concentration in the individual, spiked plasma sample minus the concentration in the corresponding non-spiked plasma sample divided by the theoretical spiked concentration of peptide and multiplied by 100. For the presentation of data, we normalized the recovery after each treatment by adjusting for the recovery of the samples extracted immediately, set as 100% (Table 1). Differences between treatments were analyzed by one-way ANOVA for repeated measurement with post hoc Bonferroni correction. […]

[4] = Stability of glucagon in frozen assay buffer with 6% HSA; type: physicochemical; conditions: 40 pmol/l, -20 °C for up to 72 h

Compound | Recovery of intact GLP-1 on addition of a DPP4 inhibitor [1] | Glucagon recovery at RT for 3 h, N-terminal-specific assay [2] | Glucagon stability at RT for 1 h [2] | Loss of glucagon recovery after 1 month of frozen storage [3] | Recovery of glucagon in buffer after freezing [4]
CC[C@H](C)[C@H](NC(=O)[C@H](Cc1ccccc1)NC(=O)[C@H](CCC(=O)O)NC(=O)[C@H](CCCCN)NC(=O)[C@H](C)NC(=O)[C@H](C)NC(=O)[C@H](CCC(N)=O)NC(=O)CNC(=O)[C@H](CCC(=O)O)NC(=O)[C@H](CC(C)C)NC(=O)[C@H](Cc1ccc(O)cc1)NC(=O)[C@H](CO)NC(=O)[C@H](CO)NC(=O)[C@@H](NC(=O)[C@H](CC(=O)O)NC(=O)[C@H](CO)NC(=O)[C@@H](NC(=O)[C@H](Cc1ccccc1)NC(=O)[C@@H](NC(=O)CNC(=O)[C@H](CCC(=O)O)NC(=O)[C@H](C)NC(=O)[C@@H](N)Cc1c[nH]cn1)[C@@H](C)O)[C@@H](C)O)C(C)C)C(=O)N[C@@H](C)C(=O)N[C@@H](Cc1c[nH]c2ccccc12)C(=O)N[C@@H](CC(C)C)C(=O)N[C@H](C(=O)N[C@@H](CCCCN)C(=O)NCC(=O)N[C@@H](CCCNC(=N)N)C(N)=O)C(C)C [GLP-1 7–36NH2] | increased |  |  |  | 
glucagon 1–29 |  | significant (P=0.02) reduction | relatively stable | about 50% | unaffected
